Test results: patent publication US20230257470A1 (published 2023)

B1: GpH7-B3/GpL16-k0 variant D270P (antibody, human IgG1)
heavy: not shown
light: DIVMTQSPLSLPVTPGEPASISCQASESLVHSNRNTYLHWYLQKPGQSPQLLIYKVSNRFSGVPDRFSGSGSGTDFTLKISRVEAEDVGVYYCSQNTHVPPTFGQGTKVEIE
notes: also called B3 variant; copies: 2 + 2
B2: GpH7-B3/GpL16-k0 variant D270K (antibody, human IgG1)
heavy: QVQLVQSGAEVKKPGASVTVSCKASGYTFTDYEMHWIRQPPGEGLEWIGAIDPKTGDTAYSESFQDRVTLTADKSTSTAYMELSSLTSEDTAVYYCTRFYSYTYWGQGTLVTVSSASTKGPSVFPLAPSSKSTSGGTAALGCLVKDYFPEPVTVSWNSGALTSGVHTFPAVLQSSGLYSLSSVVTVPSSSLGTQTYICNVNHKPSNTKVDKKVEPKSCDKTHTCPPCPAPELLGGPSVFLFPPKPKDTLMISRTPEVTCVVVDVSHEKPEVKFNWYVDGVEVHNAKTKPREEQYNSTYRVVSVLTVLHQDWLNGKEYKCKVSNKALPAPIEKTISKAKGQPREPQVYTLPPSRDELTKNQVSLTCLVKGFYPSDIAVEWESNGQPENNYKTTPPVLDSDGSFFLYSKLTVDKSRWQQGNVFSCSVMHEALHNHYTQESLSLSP
light: DIVMTQSPLSLPVTPGEPASISCQASESLVHSNRNTYLHWYLQKPGQSPQLLIYKVSNRFSGVPDRFSGSGSGTDFTLKISRVEAEDVGVYYCSQNTHVPPTFGQGTKVEIE
notes: as for B1
B3: GpH7-B3/GpL16-k0 variant P271F (antibody, human IgG1)
heavy: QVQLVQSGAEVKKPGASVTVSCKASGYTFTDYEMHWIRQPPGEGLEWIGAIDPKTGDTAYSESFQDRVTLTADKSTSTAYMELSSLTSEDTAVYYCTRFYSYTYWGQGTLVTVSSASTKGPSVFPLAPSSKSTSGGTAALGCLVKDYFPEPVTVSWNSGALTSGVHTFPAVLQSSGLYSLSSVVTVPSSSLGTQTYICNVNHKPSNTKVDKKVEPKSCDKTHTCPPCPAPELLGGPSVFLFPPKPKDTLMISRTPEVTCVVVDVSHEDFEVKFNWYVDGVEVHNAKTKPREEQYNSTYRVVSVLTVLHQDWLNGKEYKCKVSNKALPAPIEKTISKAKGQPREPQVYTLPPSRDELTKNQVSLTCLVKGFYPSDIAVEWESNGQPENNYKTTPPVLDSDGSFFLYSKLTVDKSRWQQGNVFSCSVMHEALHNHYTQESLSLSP
light: DIVMTQSPLSLPVTPGEPASISCQASESLVHSNRNTYLHWYLQKPGQSPQLLIYKVSNRFSGVPDRFSGSGSGTDFTLKISRVEAEDVGVYYCSQNTHVPPTFGQGTKVEIE
notes: as for B1
B4: GpH7-B3/GpL16-k0 variant D270H (antibody, human IgG1)
heavy: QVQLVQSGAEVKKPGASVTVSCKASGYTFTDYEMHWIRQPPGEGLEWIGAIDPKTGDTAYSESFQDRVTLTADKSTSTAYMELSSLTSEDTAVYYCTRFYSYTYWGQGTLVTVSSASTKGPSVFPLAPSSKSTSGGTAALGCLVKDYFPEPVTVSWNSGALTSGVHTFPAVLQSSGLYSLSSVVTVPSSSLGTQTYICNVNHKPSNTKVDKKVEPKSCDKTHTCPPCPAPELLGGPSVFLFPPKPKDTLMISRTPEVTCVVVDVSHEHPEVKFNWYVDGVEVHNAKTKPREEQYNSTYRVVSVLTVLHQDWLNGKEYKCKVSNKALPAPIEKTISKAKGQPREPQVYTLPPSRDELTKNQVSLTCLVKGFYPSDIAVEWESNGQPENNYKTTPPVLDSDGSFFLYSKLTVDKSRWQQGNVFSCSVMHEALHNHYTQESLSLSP
light: DIVMTQSPLSLPVTPGEPASISCQASESLVHSNRNTYLHWYLQKPGQSPQLLIYKVSNRFSGVPDRFSGSGSGTDFTLKISRVEAEDVGVYYCSQNTHVPPTFGQGTKVEIE
notes: as for B1
B5: GpH7-B3/GpL16-k0 variant D270L (antibody, human IgG1)
heavy: not shown
light: DIVMTQSPLSLPVTPGEPASISCQASESLVHSNRNTYLHWYLQKPGQSPQLLIYKVSNRFSGVPDRFSGSGSGTDFTLKISRVEAEDVGVYYCSQNTHVPPTFGQGTKVEIE
notes: as for B1
B6: GpH7-B3/GpL16-k0 variant D270S (antibody, human IgG1)
heavy: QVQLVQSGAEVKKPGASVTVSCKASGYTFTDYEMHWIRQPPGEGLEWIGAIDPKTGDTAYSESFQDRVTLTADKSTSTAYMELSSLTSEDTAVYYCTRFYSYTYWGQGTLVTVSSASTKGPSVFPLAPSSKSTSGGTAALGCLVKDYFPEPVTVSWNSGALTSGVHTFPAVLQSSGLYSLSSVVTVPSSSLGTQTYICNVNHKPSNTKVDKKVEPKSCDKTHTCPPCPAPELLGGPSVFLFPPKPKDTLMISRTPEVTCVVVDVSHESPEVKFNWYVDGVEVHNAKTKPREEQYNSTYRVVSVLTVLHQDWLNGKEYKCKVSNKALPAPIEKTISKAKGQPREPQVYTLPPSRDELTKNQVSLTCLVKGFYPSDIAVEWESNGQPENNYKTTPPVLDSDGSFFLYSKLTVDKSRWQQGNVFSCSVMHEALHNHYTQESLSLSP
light: DIVMTQSPLSLPVTPGEPASISCQASESLVHSNRNTYLHWYLQKPGQSPQLLIYKVSNRFSGVPDRFSGSGSGTDFTLKISRVEAEDVGVYYCSQNTHVPPTFGQGTKVEIE
notes: as for B1
B7: GpH7-B3/GpL16-k0 variant D270R (antibody, human IgG1)
heavy: not shown
light: DIVMTQSPLSLPVTPGEPASISCQASESLVHSNRNTYLHWYLQKPGQSPQLLIYKVSNRFSGVPDRFSGSGSGTDFTLKISRVEAEDVGVYYCSQNTHVPPTFGQGTKVEIE
notes: as for B1
B8: GpH7-B3/GpL16-k0 variant D270I (antibody, human IgG1)
heavy: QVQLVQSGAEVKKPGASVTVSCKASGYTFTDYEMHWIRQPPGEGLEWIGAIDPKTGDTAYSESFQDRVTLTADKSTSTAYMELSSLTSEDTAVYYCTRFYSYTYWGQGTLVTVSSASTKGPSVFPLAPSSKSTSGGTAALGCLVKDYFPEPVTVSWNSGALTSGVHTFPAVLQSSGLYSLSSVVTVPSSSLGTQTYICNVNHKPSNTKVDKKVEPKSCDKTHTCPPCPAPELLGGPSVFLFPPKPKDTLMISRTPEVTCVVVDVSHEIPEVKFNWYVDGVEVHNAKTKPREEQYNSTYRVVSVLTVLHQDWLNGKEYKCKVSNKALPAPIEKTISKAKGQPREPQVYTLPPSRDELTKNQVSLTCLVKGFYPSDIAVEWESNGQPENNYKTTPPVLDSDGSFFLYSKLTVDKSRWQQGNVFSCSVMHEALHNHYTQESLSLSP
light: DIVMTQSPLSLPVTPGEPASISCQASESLVHSNRNTYLHWYLQKPGQSPQLLIYKVSNRFSGVPDRFSGSGSGTDFTLKISRVEAEDVGVYYCSQNTHVPPTFGQGTKVEIE
notes: as for B1
B9: GpH7-B3/GpL16-k0 variant D270N (antibody, human IgG1)
heavy: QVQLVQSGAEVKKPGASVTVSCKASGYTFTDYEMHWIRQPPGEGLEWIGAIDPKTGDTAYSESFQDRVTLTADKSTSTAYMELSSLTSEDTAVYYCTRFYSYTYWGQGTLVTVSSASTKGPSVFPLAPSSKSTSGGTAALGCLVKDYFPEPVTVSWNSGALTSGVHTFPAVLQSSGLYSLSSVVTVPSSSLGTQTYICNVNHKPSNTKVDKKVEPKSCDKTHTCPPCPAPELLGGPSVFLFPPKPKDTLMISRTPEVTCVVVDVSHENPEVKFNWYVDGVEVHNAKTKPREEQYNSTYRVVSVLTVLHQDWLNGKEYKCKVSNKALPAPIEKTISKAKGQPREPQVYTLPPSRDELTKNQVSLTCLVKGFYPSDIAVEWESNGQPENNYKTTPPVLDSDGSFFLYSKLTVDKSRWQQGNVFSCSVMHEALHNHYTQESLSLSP
light: DIVMTQSPLSLPVTPGEPASISCQASESLVHSNRNTYLHWYLQKPGQSPQLLIYKVSNRFSGVPDRFSGSGSGTDFTLKISRVEAEDVGVYYCSQNTHVPPTFGQGTKVEIE
notes: as for B1
B10: GpH7-B3/GpL16-k0 variant D270W (antibody, human IgG1)
heavy: not shown
light: DIVMTQSPLSLPVTPGEPASISCQASESLVHSNRNTYLHWYLQKPGQSPQLLIYKVSNRFSGVPDRFSGSGSGTDFTLKISRVEAEDVGVYYCSQNTHVPPTFGQGTKVEIE
notes: as for B1
B11: GpH7-B3/GpL16-k0 variant D270T (antibody, human IgG1)
heavy: not shown
light: DIVMTQSPLSLPVTPGEPASISCQASESLVHSNRNTYLHWYLQKPGQSPQLLIYKVSNRFSGVPDRFSGSGSGTDFTLKISRVEAEDVGVYYCSQNTHVPPTFGQGTKVEIE
notes: as for B1
B12: GpH7-B3/GpL16-k0 variant D270F (antibody, human IgG1)
heavy: not shown
light: DIVMTQSPLSLPVTPGEPASISCQASESLVHSNRNTYLHWYLQKPGQSPQLLIYKVSNRFSGVPDRFSGSGSGTDFTLKISRVEAEDVGVYYCSQNTHVPPTFGQGTKVEIE
notes: as for B1
B13: GpH7-B3/GpL16-k0 variant Y296P (antibody, human IgG1)
heavy: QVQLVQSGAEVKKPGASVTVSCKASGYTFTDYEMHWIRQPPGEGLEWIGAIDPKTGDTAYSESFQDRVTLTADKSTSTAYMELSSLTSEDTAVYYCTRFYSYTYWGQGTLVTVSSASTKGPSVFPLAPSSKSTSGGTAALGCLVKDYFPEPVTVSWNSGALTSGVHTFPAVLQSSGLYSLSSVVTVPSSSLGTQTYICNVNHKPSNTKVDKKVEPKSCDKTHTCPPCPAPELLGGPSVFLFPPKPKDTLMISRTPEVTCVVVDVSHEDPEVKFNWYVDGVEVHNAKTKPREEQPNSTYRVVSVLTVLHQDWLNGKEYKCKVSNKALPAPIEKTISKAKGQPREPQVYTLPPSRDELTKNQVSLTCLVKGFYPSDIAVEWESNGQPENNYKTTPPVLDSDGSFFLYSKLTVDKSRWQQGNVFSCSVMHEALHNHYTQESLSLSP
light: DIVMTQSPLSLPVTPGEPASISCQASESLVHSNRNTYLHWYLQKPGQSPQLLIYKVSNRFSGVPDRFSGSGSGTDFTLKISRVEAEDVGVYYCSQNTHVPPTFGQGTKVEIE
notes: as for B1
B14: GpH7-B3/GpL16-k0 variant D270M (antibody, human IgG1)
heavy: not shown
light: DIVMTQSPLSLPVTPGEPASISCQASESLVHSNRNTYLHWYLQKPGQSPQLLIYKVSNRFSGVPDRFSGSGSGTDFTLKISRVEAEDVGVYYCSQNTHVPPTFGQGTKVEIE
notes: as for B1
B15: GpH7-B3/GpL16-k0 variant D270Q (antibody, human IgG1)
heavy: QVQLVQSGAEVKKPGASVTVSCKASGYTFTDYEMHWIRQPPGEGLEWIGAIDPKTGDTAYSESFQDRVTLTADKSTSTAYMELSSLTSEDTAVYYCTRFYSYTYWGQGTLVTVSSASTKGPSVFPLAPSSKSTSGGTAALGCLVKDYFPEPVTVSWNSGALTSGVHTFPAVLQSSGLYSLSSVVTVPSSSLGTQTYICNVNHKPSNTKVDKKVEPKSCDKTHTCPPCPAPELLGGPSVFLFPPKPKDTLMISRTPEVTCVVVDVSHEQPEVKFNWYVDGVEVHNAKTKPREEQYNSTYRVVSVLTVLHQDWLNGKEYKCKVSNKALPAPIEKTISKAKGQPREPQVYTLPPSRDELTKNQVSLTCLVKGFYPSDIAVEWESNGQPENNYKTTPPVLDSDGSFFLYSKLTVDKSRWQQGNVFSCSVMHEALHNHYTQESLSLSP
light: DIVMTQSPLSLPVTPGEPASISCQASESLVHSNRNTYLHWYLQKPGQSPQLLIYKVSNRFSGVPDRFSGSGSGTDFTLKISRVEAEDVGVYYCSQNTHVPPTFGQGTKVEIE
notes: as for B1
B16: GpH7-B3/GpL16-k0 variant S298W (antibody, human IgG1)
heavy: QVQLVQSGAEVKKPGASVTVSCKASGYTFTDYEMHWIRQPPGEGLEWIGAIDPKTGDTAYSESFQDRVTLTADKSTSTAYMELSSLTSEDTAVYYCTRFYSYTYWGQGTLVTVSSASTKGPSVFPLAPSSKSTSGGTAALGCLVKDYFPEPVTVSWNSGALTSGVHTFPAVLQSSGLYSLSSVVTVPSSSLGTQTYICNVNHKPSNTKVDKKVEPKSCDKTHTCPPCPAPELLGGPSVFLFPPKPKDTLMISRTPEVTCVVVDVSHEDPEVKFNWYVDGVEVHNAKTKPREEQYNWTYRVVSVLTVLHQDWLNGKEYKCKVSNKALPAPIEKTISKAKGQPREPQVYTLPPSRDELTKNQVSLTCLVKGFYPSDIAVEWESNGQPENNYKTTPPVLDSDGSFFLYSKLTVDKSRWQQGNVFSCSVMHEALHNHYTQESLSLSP
light: DIVMTQSPLSLPVTPGEPASISCQASESLVHSNRNTYLHWYLQKPGQSPQLLIYKVSNRFSGVPDRFSGSGSGTDFTLKISRVEAEDVGVYYCSQNTHVPPTFGQGTKVEIE
notes: as for B1
B17: GpH7-B3/GpL16-k0 variant D270A (antibody, human IgG1)
heavy: not shown
light: DIVMTQSPLSLPVTPGEPASISCQASESLVHSNRNTYLHWYLQKPGQSPQLLIYKVSNRFSGVPDRFSGSGSGTDFTLKISRVEAEDVGVYYCSQNTHVPPTFGQGTKVEIE
notes: as for B1
B18: GpH7-B3/GpL16-k0 variant D270Y (antibody, human IgG1)
heavy: not shown
light: DIVMTQSPLSLPVTPGEPASISCQASESLVHSNRNTYLHWYLQKPGQSPQLLIYKVSNRFSGVPDRFSGSGSGTDFTLKISRVEAEDVGVYYCSQNTHVPPTFGQGTKVEIE
notes: as for B1
B19: GpH7-B3/GpL16-k0 variant D270V (antibody, human IgG1)
heavy: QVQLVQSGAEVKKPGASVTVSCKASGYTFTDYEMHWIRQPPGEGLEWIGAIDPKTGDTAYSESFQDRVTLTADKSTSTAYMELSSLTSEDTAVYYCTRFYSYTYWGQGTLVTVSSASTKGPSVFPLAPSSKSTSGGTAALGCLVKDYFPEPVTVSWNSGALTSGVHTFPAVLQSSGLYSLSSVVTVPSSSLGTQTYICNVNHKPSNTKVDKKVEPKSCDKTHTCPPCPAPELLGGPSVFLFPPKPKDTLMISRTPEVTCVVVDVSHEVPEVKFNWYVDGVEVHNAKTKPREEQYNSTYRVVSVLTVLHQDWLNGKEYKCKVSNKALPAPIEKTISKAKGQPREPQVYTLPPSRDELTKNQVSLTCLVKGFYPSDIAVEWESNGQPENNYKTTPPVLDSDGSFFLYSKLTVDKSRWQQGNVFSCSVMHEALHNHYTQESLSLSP
light: DIVMTQSPLSLPVTPGEPASISCQASESLVHSNRNTYLHWYLQKPGQSPQLLIYKVSNRFSGVPDRFSGSGSGTDFTLKISRVEAEDVGVYYCSQNTHVPPTFGQGTKVEIE
notes: as for B1
B20: GpH7-B3/GpL16-k0 variant D270G (antibody, human IgG1)
heavy: not shown
light: DIVMTQSPLSLPVTPGEPASISCQASESLVHSNRNTYLHWYLQKPGQSPQLLIYKVSNRFSGVPDRFSGSGSGTDFTLKISRVEAEDVGVYYCSQNTHVPPTFGQGTKVEIE
notes: as for B1

Key:
Assay in all cases: SPR (Biacore), antibody captured, FcγR as analyte; amount bound / that of GpH7-B3/GpL16-k0 x 100;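 also: FcγR binding response divided by the captured antibody amount before comparison, measured at 25 °C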
human FcγRIIa(R) = biological target: T1, human FcγRIIa(R) (human, UniProt P12318 36-217)
T1 construct: also called FcgRIIaR; FcγRIIa type R
T1 chain: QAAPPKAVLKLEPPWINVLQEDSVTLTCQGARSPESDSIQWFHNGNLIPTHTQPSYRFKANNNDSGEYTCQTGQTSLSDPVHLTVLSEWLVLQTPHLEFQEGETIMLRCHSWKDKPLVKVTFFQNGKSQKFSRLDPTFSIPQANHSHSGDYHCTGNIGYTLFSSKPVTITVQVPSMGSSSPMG
Experimental: (§1) Interaction between each modified antibody and Fcγ receptor prepared in the manner described above was analyzed using the BIACORE™ T100 surface plasmon resonance system (GE Healthcare), BIACORE™ T200 surface plasmon resonance system (GE Healthcare), BIACORE™ A100 surface plasmon resonance system or BIACORE™ 4000 surface plasmon resonance system. HBS-EP+(GE Healthcare) was used for the running buffer, and measurements were carried out at 25° C. The chips used were chips in which antigen peptides, Protein A (Thermo Scientific), Protein A/G (Thermo Scientific) or Protein L (ACTIGEN® protein (Alltech or BioVision) were immobilized on the Series S Sensor Chip CM5 (GE Healthcare) or Series S Sensor Chip CM4 (GE Healthcare) by amine coupling, or chips in which preliminarily biotinylated antigen peptides were allowed to interact and then immobilized on the Series S Sensor Chip SA (certified) (GE Healthcare). The target antibodies were captured on these sensor chips, Fcγ receptor diluted with the running buffer was allowed to interact, followed by measurement of the amount of bound antibody. The amounts bound were compared between antibodies. However, since the amount of Fcγ receptor bound depends on the amount of captured antibody, the values used for comparison were first corrected by dividing the amount of Fcγ receptor bound by the captured amount of each antibody. Through reaction with 10 mM glycine-HCl at pH 1.5, the sensor chips were regenerated by washing off antibody captured on the sensor chips and used repeatedly.
(§2) Binding strength was evaluated according to the following method based on the results of analyzing the interaction with each FcγR. […] That value was then further multiplied by 100, and the resulting value was used as an indicator of relative binding activity to each FcγR.

human FcγRIIa(H) = biological target: T2, human FcγRIIa(H) (human, UniProt P12318 36-217)
T2 construct: also called FcgRIIaH; FcγRIIa type H
T2 sequence: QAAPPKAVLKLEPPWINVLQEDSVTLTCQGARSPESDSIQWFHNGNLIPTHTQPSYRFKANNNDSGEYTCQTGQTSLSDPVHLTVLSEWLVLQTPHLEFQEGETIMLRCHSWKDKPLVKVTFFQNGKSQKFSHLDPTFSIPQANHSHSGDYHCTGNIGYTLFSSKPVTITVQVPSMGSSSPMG
Experimental: as §1, §2

human FcγRIIb = biological target: T3, human FcγRIIb (human, UniProt P31994 43-217, limits assumed)
T3 construct: also called FcgRIIb; FcγIIB
T3 sequence: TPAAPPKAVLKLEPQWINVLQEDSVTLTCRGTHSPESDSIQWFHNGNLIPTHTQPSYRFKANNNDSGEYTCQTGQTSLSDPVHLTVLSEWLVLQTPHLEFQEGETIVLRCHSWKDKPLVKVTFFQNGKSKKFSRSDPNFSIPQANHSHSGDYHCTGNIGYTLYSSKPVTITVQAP
Experimental: as §1, §2

human FcγRIa = biological target: T4, human FcγRIa (human, UniProt P12314 16-292, limits assumed)
T4 construct: also called FcgRIa; CD64
Experimental: as §1, §2

human FcγRIIIa(F) = biological target: T5, human FcγRIIIa(F) (human, UniProt P08637 17-208, limits assumed)
T5 construct: also called FcgRIIIaF; FcγRIIIa allotype F158
T5 sequence (P08637 other isoform, or with tags, fused parts or gaps limits assumed): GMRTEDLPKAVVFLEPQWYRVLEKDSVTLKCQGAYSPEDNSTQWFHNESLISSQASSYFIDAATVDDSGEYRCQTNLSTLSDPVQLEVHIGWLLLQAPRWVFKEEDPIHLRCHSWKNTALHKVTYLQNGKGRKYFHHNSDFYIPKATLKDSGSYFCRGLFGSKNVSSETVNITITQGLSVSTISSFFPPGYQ
Experimental: as §1, §2

T4 sequence (P12314 16-292 limits assumed): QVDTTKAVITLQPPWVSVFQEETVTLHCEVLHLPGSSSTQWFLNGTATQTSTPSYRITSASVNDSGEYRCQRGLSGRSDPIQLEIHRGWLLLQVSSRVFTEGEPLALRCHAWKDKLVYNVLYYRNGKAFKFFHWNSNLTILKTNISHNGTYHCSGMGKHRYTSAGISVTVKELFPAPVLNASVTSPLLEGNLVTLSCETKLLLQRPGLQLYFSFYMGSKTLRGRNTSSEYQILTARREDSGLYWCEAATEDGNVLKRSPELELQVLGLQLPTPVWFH

Binder	relative binding activity (human FcγRIIa(R)) [GpH7-B3/GpL16-k0 = 100]	relative binding activity (human FcγRIIa(H)) [GpH7-B3/GpL16-k0 = 100]	relative binding activity (human FcγRIIb) [GpH7-B3/GpL16-k0 = 100]	relative binding activity (human FcγRIa) [GpH7-B3/GpL16-k0 = 100]	relative binding activity (human FcγRIIIa(F)) [GpH7-B3/GpL16-k0 = 100]
B1	-3	0	1	64	-1
B2	-4	16	-5	45	5
B3	49	55	38	99	39
B4	0	53	-2	70	11
B5	6	61	3	90	33
B6	0	49	-1	73	17
B7	-5	11	-5	45	2
B8	3	43	1	88	23
B9	-1	34	-2	68	13
B10	-2	38	-2	74	7
B11	1	38	2	81	–
B12	5	62	5	88	12
B13	10	8	7	45	–
B14	7	57	6	90	29
B15	2	78	0	82	49
B16	19	17	–	69	11
B17	3	66	5	87	23
B18	-2	53	-2	78	–
B19	1	37	3	84	19
B20	3	29	3	82	6
